These results are taken from paper PMC10277598.

The test system of the series is CsrA-His6. As to the kind of experiment: EMSA. The following applies: 10 mM MgCl2; apparent Kd, linear regression (54.7 nM in Fig. S5); 0.5 nM labeled RNA, 0-400 nM CsrA, 10 mM MgCl2, 100 mM KCl, 32.5 ng total yeast RNA, 20 mM DTT, 7.5% glycerol, 4 U SUPERasin, 37 C 30 min; native PAGE in 1X …. A general note: A gel shift assay detects complexes by their altered migration in electrophoresis.

Regarding hflK leader RNA (-86 to +48), the Kd is 0.055 µM.
